{
  "source": "the DeepSol protein solubility set",
  "data": [
    {"assay": "soluble on expression in E. coli; label from the status in PepcDB or PDB records", "values": [
      {"sequence": "MTKKIIGIAGNQLLQAAEVFHGNQVTYTPQGFVSAVQAAGGVPLVLPIGPKELAATYIQQIDKLLLAGGQDVAPEFYGQEPHIKLEETNRDRDEFELALIEEALKQNKPIFAVCRGMQLVNVALGGTLYQDLSMYPQWSVKHGQQPTQPIFATHRIDVEPDSQLSNIYGTTGQVNSYHHQALHTLGKDLRVTAWSSDGLAEAVESTNEQQPLLAVQWHPELMYARDAKSQALFNYFVQKL", "soluble on expression in E. coli": "not soluble"},
      {"sequence": "MTKKSTKSEAASKTKKSGVPETGAQGVRAGGADHADAAHLGTVNNALVNHHYLEEKEFQTVAETLQRNLATTISLYLKFKKYHWDIRGRFFRDLHLAYDEFIAEIFPSIDEQAERLVALGGSPLAAPADLARYSTVQVPQETVRDARTQVADLVQDLSRVGKGYRDDSQACDEANDPVTADMYNGYAATIDKIRWMLQAIMDDERLD", "soluble on expression in E. coli": "soluble"},
      {"sequence": "MTKPIVFQNARIIDPSRTIDEIGTVIVENGLIIAAGKEALNQGIPEGAEIINAQNKAILPGLVDARVFVGEPGNESRETLASASQSAAAGGITSFLMMPNTNPVIDNIALVKFITHTAQEISSVNIYPVAAITQGFNGQEIAEFGLLKDAGAVAFSEGKKTLQNSSVMRRAMTYARDFDVPLMHETQDKDLIGQGVMNEGLLASWLGLSGIPREAEVIPLERDLRLAALTQTRYHAAQISTALSADALRLSKQRSEKISAGVSINHLSFNENDIGEYRTSFRLIPPLRTEEDRIAMIEAIKDGTVDIIVSSHDPQSLDKKNLPFSEAAIGAIGMETLLSAALRLYHNGTISLLRLTELLSTTPAKLFDLNAGTLRKGTHADLILVDLDEPWIVSPEKLYSRSKNTPFEKAHFQGRVLQTFVKGQSIFKLDQ", "soluble on expression in E. coli": "not soluble"},
      {"sequence": "MTKVYIENYGCARNRADGEIMAGLLLSSGYEIVEGEENADIVVVNSCAVKDPTEVKIARRIRELLDRGKKVIVTGCLPHVNPDAIDERVSAVLGVKSIDRIVQAVEYALRGEKLISVPDWRKRNLDKLDFPRLSPRGVHFILPIAEGCLNGCTYCATRSARGVLKSYSPEKIVEWVKWAIRQGYKEIWLSAEDTGCYGFDIGTNLAKLLDEITAIEGEFRIRVGMMNPNHVLKFLDELIEAYKDEKVYKFLHLPVQSGDNEILRRMGRTYTVEEFEEIVNAFRREFPDLNLHTDIIVGFPGESEEAFQRSLELIKRIKPDKVNVSRYSPRPGTIAAKWKQLPGWVVKERSRIMHRVRLQISYEINQRYVGRKVDILVHGEGKKGNVDAVTMNYKHIIIPRGEKGEFARAKVNGATSTYLLGEIVD", "soluble on expression in E. coli": "soluble"},
      {"sequence": "MTKYRLSEEPRAFTYQVDGEKKSVLLRQVIAVTDFNDVKAGTSGGWVDAGNVLSQQGDCWIYDENAMAFAGTEITGNARITQPCSLYNNVRIGDNVWIDRSDISDGARISDNVTIQSSSVRGECAIYGDARVLNQSEILAVQGLTHEHAQILQIYDRATVNHSRIVHQVQLYGDATITLAFIEHRAEVFDFALIEGNKDNNVWICDCAKVYGHARVIAGTEEDAIPTLRYSSQVAEHALIEGNCVLKHHVLVGGHAEIRGGPILLDDRVLIEGQACIQGEILIEHQVEISGRATVIAFDGNTIHLRGPKVINGEDRITRTPLVGSLLEHHHHHH", "soluble on expression in E. coli": "soluble"},
      {"sequence": "MTLAATLREADLFRSLPKGFVQCRACAHYCALPEGGAGKCGVRRNLGGRLYLVTYGKAAALHLDPVEKKPLYHFHPGEGILSVGTVGCNLFCAFCQNWQISQFREFRVSPEGRLDRPIGEDWPPKRLVAEAEALGVRLLAYTYNEPAVWIEYAHDTARLAKARGMKNVFVTSGFETKEAWDYIRPHLDAANVDLKGFTEKFYREVCGARLKPVLESLGHLVASGVWVEVTTLLLEGYNDSDEEVRAMARFLKGLSPDIPWHLTAAHPDYRMLDLRSTRHATLVRAHAIAKEEGLRFVYVGNVLDEERNSTYCPNCGRLLVRRRGYRVEALWEAPGVCPGCGQRIPGVWTW", "soluble on expression in E. coli": "soluble"},
      {"sequence": "MTLKLTYFDIHGLAEPIRLLLADKQVAYEDHRVTYEQWADIKPKMIFGQVPCLLSGDEEIVQSGAIIRHLARLNGLNGSNETETTFIDMFYEGLRDLHTKYTTMIYRNYEDGKAPYIKDVLPGELARLEKLFHTYKNGEHYVIGDKESYADYVLFEELDIHLILTPNALDGVPALKKFHERFAERPNIKAYLNKRAAINPPVNGNGKQ", "soluble on expression in E. coli": "not soluble"},
      {"sequence": "MTLMKKFYVTTPIYYVNDVPHLGHAYTTIAADTIARYYRLRDYDVFFLTGTDEHGLKIQKKAEELGISPKELVDRNAERFKKLWEFLKIEYTKFIRTTDPYHVKFVQKVFEECYKRGDIYLGEYEGWYCVGCEEFKSEAELAEDHTCPIHQKKCEYIKEPSYFFRLSKYQDKLLELYEKNPEFIQPDYRRNEIISFVKQGLKDLSVTRPRSRVKWGIPVPFDPEHTIYVWFDALFNYISALEDKVEIYWPADLHLVGKDILRFHTVYWPAFLMSLGYELPKKVFAHGWWTVEGKKMSKTLGNVVDPYEVVQEYGLDEVRYFLLREVPFGQDGDFSKKAILNRINGELANEIGNLYSRVVNMAHKFLGGEVSGARDEEYAKIAQESIKNYENYMEKVNFYKAIEEILKFTSYLNKYVDEKQPWALNKERKKEELQKVLYALVDGLFVLTHLLYPITPNKMKEALQMLGEKEFLKELKPYSKNTYKLGERKILFPKREG", "soluble on expression in E. coli": "soluble"},
      {"sequence": "MTLPRLILPLLIAAACALGGCAYNPDLGRDQLLIVNDNNLARDGEKAWADALRTSHVSKEPRKNARVQAVGQRVIVAAGLAGRPWEYAVFLEEAPNAFVLPGGYVGVTVGLLSLVENDDQLAAVIGHEAGHVVARHAAERVSQETTSKVLLGIAKAAAGGTEFGKLLKDHGEDATRYGLLLPFSRKQELEADKLGVDFMQRAGYRPREAVKLWRNMQALDGGKSGGDLGSTHPSDAVRIQELERYLASKGWLEHHHHHH", "soluble on expression in E. coli": "not soluble"},
      {"sequence": "MTLTPEASKSVAQPPTQAPLTQEEAIASLGRYGYGWADSDVAGANAQRGLSEAVVRDISAKKNEPDWMLQSRLKALRIFDRKPIPKWGSNLDGIDFDNIKYFVRSTEKQAASWDDLPEDIRNTYDRLGIPEAEKQRLVAGVAAQYESEVVYHQIREDLEAQGVIFLDTDTGLREHPDIFKEYFGTVIPAGDNKFSALNTAVWSGGSFIYVPPGVHVDIPLQAYFRINTENMGQFERTLIIADEGSYVHYVEGCLPAGELITTADGDLRPIESIRVGDFVTGHDGRPHRVTAVQVRDLDGELFTFTPMSPANAFSVTAEHPLLAIPRDEVRVMRKERNGWKAEVNSTKLRSAEPRWIAAKDVAEGDFLIYPKPKPIPHRTVLPLEFARLAGYYLAEGHACLTNGCESLIFSFHSDEFEYVEDVRQACKSLYEKSGSVLIEEHKHSARVTVYTKAGYAAMRDNVGIGSSNKKLSDLLMRQDETFLRELVDAYVNGDGNVTRRNGAVWKRVHTTSRLWAFQLQSILARLGHYATVELRRPGGPGVIMGRNVVRKDIYQVQWTEGGRGPKQARDCGDYFAVPIKKRAVREAHEPVYNLDVENPDSYLAYGFAVHNCTAPIYKSDSLHSAVVEIIVKPHARVRYTTIQNWSNNVYNLVTKRARAEAGATMEWIDGNIGSKVTMKYPAVWMTGEHAKGEVLSVAFAGEDQHQDTGAKMLHLAPNTSSNIVSKSVARGGGRTSYRGLVQVNKGAHGSRSSVKCDALLVDTVSRSDTYPYVDIREDDVTMGHEATVSKVSENQLFYLMSRGLTEDEAMAMVVRGFVEPIAKELPMEYALELNRLIELQMEGAVG", "soluble on expression in E. coli": "not soluble"},
      {"sequence": "MTNDLADIKLYDQNPDEAAIERLHHRLALVMKNQDASLVATSDPKELERVEKWVQDVLGADEQSAKRGVSKVADMMSGDRRKSRMTFYYLVAKQLNALHKI", "soluble on expression in E. coli": "not soluble"},
      {"sequence": "MTNIEERINQIIQVLREQVVQDTAVPRNIRRAAEQAIEALQNKEKEPAVRAADAIAILEEISEDPNMPLHTRTIIWEVLGALEQIK", "soluble on expression in E. coli": "not soluble"},
      {"sequence": "MTNKDIYKNNPLHGTSLETVLTTLVDHYGFEILAAYMNLNCFKQNASIESSLKFLKKTQWAQEKVEAFYMYQYNSLPKADDANFELPPRDRIVPSGLEQRPPKELSLDDAEELRIKQAKKTRERAAAATSANPWGSRLEHHHHHH", "soluble on expression in E. coli": "not soluble"},
      {"sequence": "MTPAIDAHVRLDTHPTHPSAVQAHLTGTQARVASMALEAAGWSAAATGVLVLARIDHEEPYWAADAAQHLTAAGITVEITPRLQEAIDEEWTWPNYPMTWCTRSEIREVSNQAQKIHDDIRNGHLLIHAHAHDGHTTVAVGTYLHPGGKSVYLHGEDHLRQVADTFDSPAEALVAFEKVHAAEMRPGPAPLTDTERAAIAARSVFDATTAKPEPPRREPEAVPVYLADAGDHDALLDSFLDTHGEFEKWRTWSDETTHAIHESQTLRIERVHETQARETAWTVAAYETPVSDRMWHLTATDATPAPVLLNLLNHLADGDGWDTVIGVPVGEKTVTTATQPLTEAGWKHTLTGHGIRWTSPDGQASVRFDPLTAQAPQNPATWTIWAGPGPDRPTWAITASSHTPSSLLADLSESLAHETGTRQPRPGREHRTRLAASAPAIPAVTSDRPASRSRLEHHHHHH", "soluble on expression in E. coli": "soluble"},
      {"sequence": "MTPDPLAPLDLAFWNIESAEHPMHLGALGVFEADSPTAGALAADLLAARAPAVPGLRMRIRDTWQPPMALRRPFAFGGATREPDPRFDPLDHVRLHAPATDFHARAGRLMERPLERGRPPWEAHVLPGADGGSFAVLFKFHHALADGLRALTLAAGVLDPMDLPAPRPRPEQPPRGLLPDVRALPDRLRGALSDAGRALDIGAAAALSTLDVRSSPALTAASSGTRRTAGVSVDLDDVHHVRKTTGGTVNDVLIAVVAGALRRWLDERGDGSEGVAPRALIPVSRRRPRSAHPQGNRLSGYLMRLPVGDPDPLARLGTVRAAMDRNKDAGPGRGAGAVALLADHVPALGHRLGGPLVSGAARLWFDLLVTSVPLPSLGLRLGGHPLTEVYPLAPLARGHSLAVAVSTYRGRVHYGLLADAKAVPDLDRLAVAVAEEVETLLTACRPLEHHHHHH", "soluble on expression in E. coli": "soluble"},
      {"sequence": "MTPPADETRLFECVTCGGVGIGDNRPTCCGEPMAATETGDTAVSEPSLETLLKTVFDMSGTELDICLCVMEGGELTVAALAEQIGYDRSVVARHLNHLAAFGVVEKRRRIRPEGGHVYVYTPQPPEVVRERLREEFLSWVRLATAQLDDLQREKVEAIADAKTDERQWTVFQEQ", "soluble on expression in E. coli": "not soluble"},
      {"sequence": "MTPPVSAFKKTPKKEEHPLVAIVILDAFDQRFAPTHESYPCFGTIPICNVPAINFALSWLMRTEVKNVMLVVSGLNADHATSVQREWRLAFDEFTVVVCDGASSVGDCMREIHNRELITGDFMLISNPTAVVSSTLSAQISEFRKRRRENPDNVMTLLYSNRENPEHLVLGINSETSKLMLFPAANSLNQLKASKKDFYDEVDIRRDLTPTGIAFCSRLIATQFSDNFDFVGIDDVVREILSKDDILGMSVHVEVLSPKERAFCAYDYESLILLNILMLERWFYPLVPENSDPSRYFSANPRNLYLEENGDEISIKANTWILNNNCSTVCLGVKTDIAYDAFIRNSCIGAHTEISSKTRITSSMIGKNCKIGENCVIEYAFIGDDVVIPNGAHIPKESIIGNGVMYPKELPNIQNTAIFKNAINEETFEKLSSQPIGNVHVSKFRNGGPFWRRSVNGKTNFALEEDDSESEYSESEEEDDGVGNSTKMFHDEVLESMQKILESENSLMRNLILEINSSKLACNVTMDEVARNVFAAFMKLKHNQDFNKMKELIVKWQPLFLNYYKTSAESLKVKSADQKRFELDLKRRCQIQLLLAIEDKFDRDESFGVKAQALVHYLYQEADILDEDSIIEWAGSIAEESKLKGLMKKIVDWLQEDDDEEESEDE", "soluble on expression in E. coli": "not soluble"}
    ]}
  ]
}
